Results: article PMC12012885, “Cell-Free Reaction System for ATP Regeneration from D-Fructose” (ACS Synthetic Biology, 2025)
Where a chain is given by its changes, count along the chain named. Names and notes keep the numbering of the source.

Tests used:
Ps.LrhI = target: T1, Ps.LrhI (Stutzerimonas stutzeri, UniProt Q75WH8); experiment: coupled assay with D-erythrulose reductase, NADH at […] nm; assay type: biochemical; settings: 10 mM D-erythrose, 4 mM MgCl2, pH 7.0, 37 °C
T1 construct: gene L-RhI; N-terminal hexa-His tag, synthetic gene in pET-28a, E. coli Rosetta(DE3) pLysS
T1 sequence (Q75WH8 1-430): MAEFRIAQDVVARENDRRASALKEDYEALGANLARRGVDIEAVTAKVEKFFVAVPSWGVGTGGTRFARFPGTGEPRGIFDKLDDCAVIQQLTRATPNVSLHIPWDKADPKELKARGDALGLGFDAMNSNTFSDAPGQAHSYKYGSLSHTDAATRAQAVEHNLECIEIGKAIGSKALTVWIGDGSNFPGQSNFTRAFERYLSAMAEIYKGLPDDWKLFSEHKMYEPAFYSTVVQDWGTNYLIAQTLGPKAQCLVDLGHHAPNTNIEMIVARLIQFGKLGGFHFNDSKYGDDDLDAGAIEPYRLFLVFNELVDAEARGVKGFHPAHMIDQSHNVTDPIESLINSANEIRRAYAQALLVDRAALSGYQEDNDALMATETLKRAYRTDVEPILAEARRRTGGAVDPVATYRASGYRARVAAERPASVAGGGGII

Asp52 = Asp52 (UniProt position 70, TDGSTDYGILQ); settings: cited from earlier work
purified protein = substrate: O=C(CO)[C@H](O)CO; experiment: purified protein; assay type: biochemical, Bifidobacterium adolescentis; settings: pH 6.5, 37 °C, 50 mM inorganic phosphate, 0.8 mM TPP, 3.8 mM MgCl2

Molecule: OC1OC[C@@H](O)[C@H]1O (stereo partly drawn) [D-erythrose]
- coupled assay with D-erythrulose reductase, NADH at 340 nm (Ps.LrhI): We characterized the D-erythrose activity of the enzyme and its stability under synthesis-like conditions

Molecule: Hen egg white lysozyme (lysozyme C) (Gallus gallus)
- pKa (Asp52): 3.33

B1: Bad.F6Pkt (Bifidobacterium adolescentis ATCC 15703) (protein)
chain: MTSPVIGTPWKKLNAPVSEEAIEGVDKYWRAANYLSIGQIYLRSNPLMKEPFTREDVKHRLVGHWGTTPGLNFLIGHINRLIADHQQNTVIIMGPGHGGPAGTAQSYLDGTYTEYFPNITKDEAGLQKFFRQFSYPGGIPSHYAPETPGSIHEGGELGYALSHAYGAVMNNPSLFVPAIVGDGEAETGPLATGWQSNKLINPRTDGIVLPILHLNGYKIANPTILSRISDEELHEFFHGMGYEPYEFVAGFDNEDHLSIHRRFAELFETVFDEICDIKAAAQTDDMTRPFYPMIIFRTPKGWTCPKFIDGKKTEGSWRSHQVPLASARDTEAHFEVLKNWLESYKPEELFDENGAVKPEVTAFMPTGELRIGENPNANGGRIREELKLPKLEDYEVKEVAEYGHGWGQLEATRRLGVYTRDIIKNNPDSFRIFGPDETASNRLQAAYDVTNKQWDAGYLSAQVDEHMAVTGQVTEQLSEHQMEGFLEGYLLTGRHGIWSSYESFVHVIDSMLNQHAKWLEATVREIPWRKPISSMNLLVSSHVWRQDHNGFSHQDPGVTSVLLNKCFNNDHVIGIYFPVDSNMLLAVAEKCYKSTNKINAIIAGKQPAATWLTLDEARAELEKGAAEWKWASNVKSNDEAQIVLAATGDVPTQEIMAAADKLDAMGIKFKVVNVVDLVKLQSAKENNEALSDEEFAELFTEDKPVLFAYHSYARDVRGLIYDRPNHDNFNVHGYEEQGSTTTPYDMVRVNNIDRYELQAEALRMIDADKYADKINELEAFRQEAFQFAVDNGYDHPDYTDWVYSGVNTNKQGAISATAATAGDNE
notes: homodimer
- Km (purified protein): 36.2 ± 3.2 mM

B2: Bad.F6Pkt (Bifidobacterium adolescentis ATCC 15703; H548N) (protein)
chain: B1 chain with H548N
notes: homodimer
- Km (purified protein): 48.7 ± 0.4 mM
